T1: mMepS-L24R (E. coli, UniProt P0AFV4 27-188, C1 replaced with a Met residue | L24R)
T1 construct: Site-directed mutant of mMepS; also called L24R variant; source: E. coli BL21 (DE3), purified (Ni-NTA, SEC)
T1 sequence (looked up): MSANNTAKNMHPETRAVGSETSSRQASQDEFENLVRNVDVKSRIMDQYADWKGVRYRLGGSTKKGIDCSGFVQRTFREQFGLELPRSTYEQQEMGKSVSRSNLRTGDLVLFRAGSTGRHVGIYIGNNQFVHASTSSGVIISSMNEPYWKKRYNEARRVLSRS

T2: mMepS-Q28A (E. coli, UniProt P0AFV4 27-188, C1 replaced with a Met residue | Q28A)
T2 construct: Site-directed mutant of mMepS; source: E. coli BL21 (DE3), purified (Ni-NTA, SEC)
T2 sequence (looked up): T1 sequence (looked up) with R24L, Q28A

B1: MepS-N53 (residues 1-53) (domain or fragment, E. coli, UniProt P0AFV4 27-79, looked up)
chain: MSANNTAKNMHPETRAVGSETSSLQASQDEFENLVRNVDVKSRIMDQYADWKG
notes: MepS, E. coli, mature residues 1-53, C1 replaced by Met; numbers count on: the mature protein; His-tag and TEV site; nothing is said for the ITC samples; source: E. coli BL21 (DE3), purified (Ni-NTA, SEC)
B2: MepS-N53 (residues 1-53) (domain or fragment, E. coli, UniProt P0AFV4 27-79, looked up)
chain: B1 chain
modifications: also: 15N-labelled
notes: MepS, E. coli, N-terminal 53 residues of the mature protein, C1 replaced with Met. numbers count on: the mature protein; this is told for the NMR samples, not for ITC; source: E. coli BL21 (DE3), purified (Ni-NTA, SEC); not shown: His6 with TEV site, N-terminal, kept
B3: NlpI (residues 20-294), soluble mature lipoprotein NlpI without the lipoprotein signal peptide (natural protein, E. coli, UniProt P0AFB1 20-294, looked up)
chain: SNTSWRKSEVLAVPLQPTLQQEVILARMEQILASRALTDDERAQLLYERGVLYDSLGLRALARNDFSQALAIRPDMPEVFNYLGIYLTQAGNFDAAYEAFDSVLELDPTYNYAHLNRGIALYYGGRDKLAQDDLLAFYQDDPNDPFRSLWLYLAEQKLDEKQAKEVLKQHFEKSDKEQWGWNIVEFYLGNISEQTLMERLKADATDNTSLAEHLSETNFYLGKYYLSLGDLDSATALFKLAVANNVHNFVEHRYALLELSLLGQDQDDLAESDQQ
notes: the lipidation residue C19 is not in the construct; pET28a, N-terminal His-tag followed by a TEV site; also called NlpI dimer; adaptor NlpI; source: E. coli BL21 (DE3), purified (Ni-NTA, SEC, MonoQ)
B4: MepS-N39 (residues 1-39) (domain or fragment, E. coli, UniProt P0AFV4 27-65, looked up)
chain: MSANNTAKNMHPETRAVGSETSSLQASQDEFENLVRNVD
notes: MepS, E. coli, mature residues 1-39, C1 replaced by Met; numbers count on: the mature protein; His-tag and TEV site; nothing is said for the ITC samples; source: E. coli BL21 (DE3), purified (Ni-NTA, SEC)
B5: MepS-N39 (residues 1-39) (domain or fragment, E. coli, UniProt P0AFV4 27-65, looked up)
chain: B4 chain
modifications: also: 15N-labelled
notes: MepS, E. coli, N-terminal 39 residues of the mature protein, C1 replaced with Met. numbers count on: the mature protein; this is told for the NMR samples, not for ITC; source: E. coli BL21 (DE3), purified (Ni-NTA, SEC); not shown: His6 with TEV site, N-terminal, kept
B6: soluble mature form of MepS (mMepS, residues 1-162) (enzyme, E. coli, UniProt P0AFV4 27-188, looked up)
chain: T1 sequence (looked up) with R24L
notes: numbers count on: the mature protein; Cloned into either pET21a (C-terminal His-tag) or pET28a (N-terminal His-tag and TEV site); also called mMepS-1; mMepS-2; source: E. coli BL21 (DE3), purified (Ni-NTA, SEC)
B7: mMepS-Q28A (enzyme, E. coli, UniProt P0AFV4 27-188, looked up)
chain: T1 sequence (looked up) with R24L, Q28A
notes: numbers count on: the mature protein; Site-directed mutant of mMepS; source: E. coli BL21 (DE3), purified (Ni-NTA, SEC)
B8: mMepS-D39A (enzyme, E. coli, UniProt P0AFV4 27-188, looked up)
chain: T1 sequence (looked up) with R24L, D39A
notes: as for B7
B9: mMepS-D39A (enzyme, E. coli, UniProt P0AFV4 27-188, looked up)
chain: T1 sequence (looked up) with R24L, D39A
notes: Site-directed mutant of mMepS; source: E. coli BL21 (DE3), purified (Ni-NTA, SEC)
B10: soluble mature form of MepS (mMepS, residues 1-162) (enzyme, E. coli, UniProt P0AFV4 27-188, looked up)
chain: T1 sequence (looked up) with R24L
modifications: 15N-labelled in the NMR titrations
notes: Cloned into either pET21a (C-terminal His-tag) or pET28a (N-terminal His-tag and TEV site); also called wild-type mMepS; mature full-length MepS; source: E. coli BL21 (DE3), purified (Ni-NTA, SEC)
B11: mMepS-L24R (enzyme, E. coli, UniProt P0AFV4 27-188, looked up)
chain: T1 sequence (looked up)
notes: as for B7

Data set [1] addresses T3, NlpI (residues 20-294, without the lipoprotein signal peptide) (E. coli, UniProt P0AFB1 20-294).
T3 construct: the lipidation site C19 is not in the construct; pET28a with an N-terminal His-tag and a TEV cleavage site; also called NlpI-WT; NlpI dimer; source: E. coli BL21 (DE3), purified (Ni-NTA, SEC, MonoQ)
As to the kind of experiment: ITC; NlpI (or NlpI-ΔN) in the syringe, 300 or 600 µM, injected into 30 µM MepS protein in the cell; 20 °C; 20 mM HEPES pH 7.5, 300 mM NaCl, 2 mM β-mercaptoethanol; one set of sites model; three experiments and their average. Particulars: both partners purified. (In general: In ITC the heat of successive injections is recorded.)

Data set [2] addresses B3. As to the kind of experiment: ITC; NlpI (300 or 600 µM) injected into 30 µM MepS protein in the cell; 20 °C; 20 mM HEPES pH 7.5, 300 mM NaCl, 2 mM β-mercaptoethanol; one set of sites model. To be noted: both partners purified.
Data set [3] concerns the target B10. As to the kind of experiment: NMR titration; 1H-15N TROSY-HSQC of 15N-labelled MepS protein (50 µM in Fig. 1) with unlabelled NlpI dimer (25 µM), NlpI-ΔN or Prc^SK added; 298 K; intensity ratios I/I0. To be noted: both partners purified.
Data set [4] deals with the molecule itself. Kind of data set: crystal structure; NlpI-mMepS complex, 2.8 Å, space group C2, PDB 8XUP.
A further data set deals with T1, mMepS-L24R. Kind of data set: ITC; NlpI (300 or 600 µM) injected into 30 µM MepS protein in the cell; 20 °C; 20 mM HEPES pH 7.5, 300 mM NaCl, 2 mM β-mercaptoethanol; one set of sites model. Particulars: both partners purified.
The target in the next data set is T2, mMepS-Q28A. Described as above. Particulars: both partners purified.
Data set [5] concerns the target B10. The description is as above. Particulars: both partners purified.

Positions count from the first letter of the chain named. Where “and” joins values, the source holds several entries; their conditions need not be identical. Equal entries are not always repeated. Where no end group is shown, it is not given here.

For the molecule B1, the Kd (commonly the constant that tells how readily two partners part at equilibrium) in data set [1] was 1.19 µM and 1.56 µM and 1.59 µM.
In data set [2], B2 showed a dissociation constant Kd of 1.45 µM.
As for B3, the “NMR signal intensity ratio with NlpI” value in data set [3] was < 10%. Moreover, the stoichiometry N (usually the number of molecules, sites or subunits per partner or assembly) in data set [4] was determined as 2; in data set [5] it was 1. In addition, the “fold increase in KD against mMepS” value with mMepS-L24R is ~28 fold. In addition, in the data set with mMepS-Q28A, the “fold decrease in binding affinity against mMepS” value was 7.7 fold.
Take B4: the dissociation constant Kd in data set [1] is 2.65 µM and 2.55 µM and 2.84 µM.
Turning to B5, binding in data set [2] was put at a Kd of 2.68 µM.
In the case of B6, the Kd in data set [1] was 0.25 µM and 0.22 µM.
The same measure, in the same setting: the figure for B7 is 1.91 µM and 1.77 µM and 1.88 µM and 1.85 µM; for B8 it is 0.28 µM and 0.39 µM and 0.5 µM.
In data set [2], B9 showed a dissociation constant Kd of 0.39 µM.
The same measure, in the same setting: the figure for B10 is 0.24 µM.
Turning to B11, the equilibrium dissociation constant (Kd) in data set [1] was 6.21 µM and 6.8 µM and 6.94 µM and 6.65 µM.
